# Reference: patent publication US20260103541A1 (UNIVERSIT T Z RICH, published 2026)
# T1: human FAP (fibroblast activation protein) on HT1080hFAP cells (human, UniProt Q12884 1-760)
# T1 construct: also called seprase
# T1 sequence: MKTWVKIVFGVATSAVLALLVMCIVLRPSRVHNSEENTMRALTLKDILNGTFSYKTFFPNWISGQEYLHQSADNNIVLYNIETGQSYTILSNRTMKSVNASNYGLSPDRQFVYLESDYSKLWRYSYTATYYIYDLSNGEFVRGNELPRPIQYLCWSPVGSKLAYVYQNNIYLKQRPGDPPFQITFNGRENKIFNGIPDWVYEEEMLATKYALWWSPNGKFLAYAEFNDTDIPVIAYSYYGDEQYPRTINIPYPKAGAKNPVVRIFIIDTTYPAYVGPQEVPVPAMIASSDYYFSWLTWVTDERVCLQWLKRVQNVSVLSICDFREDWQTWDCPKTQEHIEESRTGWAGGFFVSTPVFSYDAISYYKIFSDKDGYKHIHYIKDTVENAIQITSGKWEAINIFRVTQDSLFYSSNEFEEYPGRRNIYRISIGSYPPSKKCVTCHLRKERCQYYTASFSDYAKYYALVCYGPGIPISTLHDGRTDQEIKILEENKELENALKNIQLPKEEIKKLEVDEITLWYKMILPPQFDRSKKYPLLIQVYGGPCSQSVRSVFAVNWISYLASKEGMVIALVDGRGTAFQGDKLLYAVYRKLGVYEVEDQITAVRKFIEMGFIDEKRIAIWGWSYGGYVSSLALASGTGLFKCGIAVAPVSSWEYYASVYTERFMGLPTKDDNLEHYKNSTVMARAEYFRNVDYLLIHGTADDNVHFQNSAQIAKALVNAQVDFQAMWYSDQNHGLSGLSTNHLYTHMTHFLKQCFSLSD
# Target: T1, human FAP (fibroblast activation …)
# Test: flow cytometry cell-based binding assay, HT1080hFAP against FAP-negative HT1080 cells
row,Binder,binding result
1,"DARPin #5 (designed binder, also called designed ankyrin repeat domain #5; not shown: N terminal His6 tag; C terminal FLAG tag) DLGKKLLEAARAGQDDEVRILMANGADVNAEDHVGRTPLHLAAAHGHLEIVEVLLKTGADVNARDRHGITPLHLAAWSGHLEIVEVLLKTGADVNASDKQGNTPLHLAAYRGHLEIVEVLLEAGADVNAQDKFGKTPFDLAIDNGNEDIAEVLQ",binds
2,"DARPin #17 (designed binder, also called designed ankyrin repeat domain #17; not shown: N terminal His6 tag; C terminal FLAG tag) DLGKKLLEAARAGQDDEVRILMANGADVNAADNYGITPLHLAAYRGHLEIVEVLLKTGADVNAHDNVGNTPLHLAAAKGHLEIVEVLLKAGADVNADDVQGVTPLHLAASQGHLEIVEVLLKHGADVNAQDKFGKTPFDLAIDNGNEDIAEVLQ",binds
3,"DARPin #15 (designed binder, also called designed ankyrin repeat domain #15; not shown: N terminal His6 tag; C terminal FLAG tag) DLGKKLLEAARAGQDDEVRILMANGADVNAMDMWGITPLHLAAWAGHLEIVEVLLKTGADVNAFDQHGNTPLHLAAYRGHLEIVEVLLKTGADVNAHDNWGTTPLHLTAHNGHLEIVEVLLKAGADVNAQDKFGKTPFDLAIDNGNEDIAEVLQ",binds
4,"DARPin #13 (designed binder, also called designed ankyrin repeat domain #13; not shown: N terminal His6 tag; C terminal FLAG tag) DLGKKLLEAARAGQDDEVRILMANGADVNATDQHGRTPLHLAAHTGHLEIVEVLLKTGADVNAQDHQGITPLHLAAFKGHLEIVEVLLKTGADVNAQDNWGYTPLHLAAARGHLEIVEVLLKAGADVNAQDKFGKTPFDLAIDNGNEDIAEVLQ",binds
5,"DARPin #1 (designed binder, also called designed ankyrin repeat domain #1; not shown: N terminal His6 tag; C terminal FLAG tag) DLGKKLLDAARAGQDDEVRILMANGADVNAMDVWGVTPLHLAAWHRHLEIVEVLLKTGADVNANDDSGFTPLHLAAHWGHLEIVEVLLKHGADVNAQDKFGKTPFDLAIDNGNEDIAEVLQ",binds
6,"DARPin #23 (designed binder, also called designed ankyrin repeat domain #23; not shown: N terminal His6 tag; C terminal FLAG tag) DLGKKLLEAARYGQDDEVRILMANGADVNAEDQHGHTPLHLAAFSGHLEIVEVLLKTGADVNANDINGVTPLHLAANVGHLEIVEVLLKHGADVNAQDKFGKTPFDLAAYLGNEDIAEVLQ",binds
7,"DARPin #10 (designed binder, also called designed ankyrin repeat domain #10; not shown: N terminal His6 tag; C terminal FLAG tag) DLGKKLLEAARAGQDDEVRILMANGADVNAADDQGRTPLHLAAMHGHLEIVEVLLKTGADVNANDWFGITPLHLAAWWGHLEIVEVLLKAGADVNAVDHSGDTPLHLAAHLGHLEIVEVLLKHGADVNAQDKFGKTPFDLAIDNGNEDIAEVLQ",binds
8,"DARPin #22 (designed binder, also called designed ankyrin repeat domain #22; not shown: N terminal His6 tag; C terminal FLAG tag) DLGKKLLEAARAGQDDEVRILMANGADVNASDWWGITPLHLAAYWGHLEIVEVLLKTGADVNAQDNQGITPLHLAATLGHLEIVEVLLKHGADVNAQDKFGKTPFDLAIDNGNEDIAEVLQ",binds
9,"DARPin #12 (designed binder, also called designed ankyrin repeat domain #12; not shown: N terminal His6 tag; C terminal FLAG tag) DLGKKLLEAARAGQDDEVRILMANGADVNAQDQRGRTPLHLAAAWGHLEIVEVLLKTGADVNAADDMGHTPLHLAAAFGHLEIVEVLLKHGADVNAQDKFGKTPFDLAIDNGNEDIAEVLQ",binds
10,"DARPin #26 (designed binder, also called designed ankyrin repeat domain #26; not shown: N terminal His6 tag; C terminal FLAG tag) DLGKKLLEAARAGQDDEVRILMANGADVNAIDWWGITPLHLAALFGHLEIVEVLLKTGADVNAEDRLGFTPLHLAATTGHLEIVEVLLKAGADVNAQDKFGKTPFDLAIDNGNEDIAEVLQ",binds
11,"DARPin #16 (designed binder, also called designed ankyrin repeat domain #16; not shown: N terminal His6 tag; C terminal FLAG tag) DLGKKLLEAARAGQDDEVRILMANGADVNAKDRYGITPLHLAAYWGHLEIVEVLLKAGSDVNALDYHGSTPLHLAAWFGHLEIVEVLLKHGADVNAQDKFGKTPFDLAIDNGNEDIAEVLQ",binds
12,"DARPin #24 (designed binder, also called designed ankyrin repeat domain #24; not shown: N terminal His6 tag; C terminal FLAG tag) DLGKKLLEAARAGQDDEVRILMANGADVNAIDVHGITPLHLAAYWGHLEIVEVLLKAGADVNAEDESGHTPLHLAAHWGHLEIVEVLLKHGADVNAQDKFGKTPFDLAIDNGNEDIAEVLQ",binds
13,"DARPin #8 (designed binder, also called designed ankyrin repeat domain #8; not shown: N terminal His6 tag; C terminal FLAG tag) DLGKKLLEAARAGQDDEVRILMANGADVNAADEYGITPLHLAAFFGHLEIVEVLLKTGADVNADDAWGSTPLHLAAYKGHLEIVEVLLKHGADVNAQDKFGKTPFDLAIDNGNEDIAEVLQ",binds
14,"DARPin #4 (designed binder, also called designed ankyrin repeat domain #4; not shown: N terminal His6 tag; C terminal FLAG tag) DLGKKLLDAASVGQDDEVRILMANGADVNASDTYGRTPLHVAAQHGHLEIVDVLLAHGADVNASNAYGSTPLHVAAWTGHLEIVDVLLAYGADVNASNSQGNTPLHAAAATGHLEIVEVLLKHGADVNAQDKFGKTPFDLAIDNGNEDIAEVLQ",binds
15,"DARPin #21 (designed binder, also called designed ankyrin repeat domain #21; not shown: N terminal His6 tag; C terminal FLAG tag) DLGKKLLEAAELGQLDEVRILMANGADVNAMDQHGITPLHLAAWHGHLEIVEVLLKTGADVNAKDQDGSTPLHLAAYLGHLEIVEVLLKTGADVNAFDKFGNTPLHLAAHRGHLEIVEVLLKHGADVNAQDKFGKTPFDLAIDNGNEDIAEVLQ",binds
16,"DARPin #11 (designed binder, also called designed ankyrin repeat domain #11; not shown: N terminal His6 tag; C terminal FLAG tag) DLVKKLLEAARAGQDDEVRILMANGADVNANDHFGITPLHLTAWWGHLEIVEVLLKAGADVNAVDHWGTTPLHLAAHQGHLEIVEVLLKHGADVNAQDKFGKTAFDISIDNGNEDIAEVLQ",binds
17,"DARPin #20 (designed binder, also called designed ankyrin repeat domain #20; not shown: N terminal His6 tag; C terminal FLAG tag) DLGKKLLEAARAGQDDEVRILMANGADVNAVDYQGRTPLHLAAQYGHLEIVEVLLKTGADVNAQDHHGITPLHLAAFWGHLEIVEVLLKAGADVNAKDDQGNTPLHLAAWRGHLEIVEVLLKHGADVNAQDKFGKTPFDLAIDNGNEDIAEVLQ",binds
18,"DARPin #25 (designed binder, also called designed ankyrin repeat domain #25; not shown: N terminal His6 tag; C terminal FLAG tag) DLGKKLLEAARAGQDDEVRILMANGADVNATDWQGSTPLHLAAQHGHLEIVEVLLKTGADVNAEDQNGITPLHLAAYWGHLEIVEVLLKAGADVNAVDRQGNTPLHLAAVWGHLEIVEVLLKHGADVNAQDKFGKTPFDLAIDNGNEDIAEVLQ",binds
19,"DARPin #3 (designed binder, also called designed ankyrin repeat domain #3; not shown: N terminal His6 tag; C terminal FLAG tag) DLGKKLLEAARAGQDDEVRILMANGADVNAQDMTGKTPLHLAAREGHLEIVEVLLKTGADVNAKDLWGVTPLHLAAFSGHLEIVEVLLKTGADVNAWDWEGKTPLHLAAVKGHPEIVEVLLKHGADVNAQDKFGKTPFDLAIDNGNEDIAEVLQ",binds
